Assay results reported in patent publication US20040132642A1, “Methods of inhibiting metastasis or growth of a tumor cell” (Government of the U.S.A., represented by the Secretary, …, priority 2002, published 2004).

System: CXCR4-B16 cells
Experiment: adhesion of CXCR4-B16 cells to resting DMEC in parallel plate flow chamber
Assay type: cell-based, murine
Conditions: exogenously added chemokine
Description: Prior to interaction with tumor cells, resting confluent DMEC or LMEC were exposed to 100 ng/ml of recombinant CXCL12 or CCL21 for 15 min at 20° C. as described (Cinamon et al., Nat. Immunol. 2: 515-22 (2001)). After unbound chemokine was washed away, calcein-AM-labeled (Molecular Probes, Eugene, Oreg.) CXCR4- or pLNCX2-B16 cells (2.5×10^5/ml in B16 medium) were injected at 1.5 dynes/cm^2 into a parallel plate flow chamber (Glycotech, Gaithersburg, Md.) containing confluent DMEC or LMEC. In some cases, tumor cells were treated with pertussis toxin (PTX, Calbiochem, San Diego, Calif.) at 100 ng/ml for 2 hours at 37° C. to block Gi-protein-coupled signaling. After two min, flow was stopped, which enabled B16 cells to interact with MEC in the absence of shear stress. After 5 min, shear was re-established at 1.5 dynes/cm^2 for up to 2 min in order to detach unbound cells; adherent cells were digitally photographed in 5-6 random fields (each field=1.18 mm^2) with excitation at 488 nm and emission at 513 nm using sufficient exposure time (˜1 s) to allow distinction between non-moving and moving cells (which appeared as dim streaks) (Fitzhugh et al. (2000), supra). Cells were then counted with the software program IPlab (Scanalytics, Fairfax, Va.). […]

B1: CCL21: recombinant chemokine used as control on DMEC (protein, UniProt O00585 24-134, looked up)
C-C motif chemokine 21: SDGGAQDCCLKYSQRKIPAKVVRSYRKQEPSLGCSIPAILFLPRKRSQAELCADPKELWVQQLMQHLDKTPSPQKPAQGCRKDRGASKTGKKGKGSKGCKRTERSQTPKGP
stimulation of adhesion of CXCR4-B16 cells to DMEC: no effect
